What was measured:
WEHI-164 fibrosarcoma = assay: Antitumor activity in WEHI-164 fibrosarcoma-bearing mice; type: in vivo
Procedure: Female BALB/c mice (Charles River Laboratories, Calco, Italy), weighing 16–18 g, were subcutaneously injected into the left flank of 10^6 WEHI-164 cells (ATCC, cat. CRL-1751, Lot. 63,682,839). Dose-finding experiments were performed with groups of six mice treated with G4-TNF (4, 20, or 100 pg/dose in 100 μL of 0.9% sodium chloride containing 100 µg/ml HSA, intraperitoneally injected on day 5) or vehicle. Tumor growth was monitored daily by measuring tumor volume with calipers, as previously described. The animals were sacrificed before the tumor diameter reached 1.0–1.5 cm. To test whether the antitumor activity of G4-TNF was mediated by CD13, tumor-bearing mice (6 animals/group) were treated with a single injection of G4-TNF (100 pg/dose, i.p.) in combination with peptide CNGRC (100 µg/dose) or anti-CD13 mAb R3-63 (25 µg/dose, given 1.5 h i.p. before administration of G4-TNF) 5 days after tumor implantation.
Fig. 3 Effect of G4-TNF on tumor growth and body weight of mice bearing WEHI-164 fibrosarcomas. A Mice bearing subcutaneous WEHI-164 tumors (5–6 mice/groups) were treated 5 days after tumor implantation with a single intraperitoneal injection of G4-TNF (0, 4, 20, or 100 pg). Tumor volume and body weight after treatment were monitored daily. B Effect of mAb R3-63 (anti-murine CD13 antibody, 25 µg) and CNGRC peptide (100 µg) on the antitumor activity of G4-TNF (100 pg) (5–6 mice/group). The arrows indicate the time of treatment. *P < 0.05; **P < 0.01, by Mann–Whitney analysis of the area under the curve for each tumor, with the GraphPad Prism software (mean ± SEM)
A) Mice bearing subcutaneous WEHI-164 tumors (6 mice/groups), were treated 5-6 days after tumor implantation with a single intraperitoneal injection of murine NGR-TNF (0, 25, 50, or 100 pg). Tumor volume and body weight after treatment were monitored daily.
B) Effect of murine TNF (50 pg) on tumor growth and body weight. The arrows indicate the time of treatment (mean ± SEM).

HUVEC = assay: Cytotoxicity assay on adherent and non-adherent HUVEC; type: cell-based, human; conditions: adherent and non-adherent cells, concentrations lower than 100 pg/ml, 24 h, MTT
Procedure: The supernatant was removed using a Pasteur pipet connected to a vacuum pump, and 200 µL of dimethyl sulfoxide was then added to each well to dissolve the formazan crystals. The absorbance at 570 nm was then read using a microtiter plate reader.
The cytotoxicity assay with cell in suspension was carried out following the same protocol except that the overnight incubation of the microtiter plate after cell plating was omitted.

CD13 expressed in HUVEC = assay: Inhibition of cell-associated CD13 enzymatic activity, HUVEC; type: cell-based, human; conditions: 3 × 10^5 cells/well, L-alanine p-nitroanilide, 30 min, 37 °C, absorbance 405 nm
Procedure: Fig. 5 Quantification of CD13 expressed by HL-60 and HUVEC by western blotting and FACS analyses, and determination of their enzymatic activity. A Western blotting (WB) analysis of CD13 expression in HL-60 cells and HUVEC. For both cell lines, 2 µg of cell lysates were loaded in each well (n = 4–5 replicates, as indicated). After blotting, the membrane was cut and analyzed for CD13 and actin expression as described in Material and methods. The results of one representative experiment, out of three independent experiments performed, are shown (bars, ratio of CD13/actin band intensity, mean ± SEM). Recombinant human CD13 (rCD13) (20 ng) was loaded as positive control. MW, molecular weight markers. B FACS analysis of CD13 expression in HUVEC and HL-60 cells. The cells were incubated with mAb WM15 (10 μg/mL) and stained with a FITC-labeled goat anti-mouse IgG (H + L) secondary antibody. Data were expressed as fluorescence intensity and normalized to the number of cells. The cumulative results of three independent experiments are shown (each performed in duplicate; mean ± SEM). C Enzyme activity assay of CD13 expressed in HUVEC and HL-60 cells. […] Absorbance at 405 nm was measured using a plate reader. The enzyme units in each sample were calculated using rCD13 as a standard and were normalized to the number of cells. […] The absorbance was measured at 405 nm using a plate reader. […]

Substance: VGCARRYCS-TNF [G4-TNF, recombinant murine TNF fused to the C-terminus of G4]
- Body weight and clinical signs of toxicity (WEHI-164 fibrosarcoma; mice after treatment with 4, 20 or 100 pg i.p.): No loss of body weight and no other clinical signs of toxicity
- Antitumor effect (tumor growth) (WEHI-164 fibrosarcoma; single intraperitoneal injection of 100 pg, 5 days after tumor implantation): significant antitumor effects
- Cytotoxic effects on HUVEC (in words) (HUVEC): No or minimal cytotoxic effects
- Inhibition of CD13 enzymatic activity associated with HUVEC (in words) (CD13 expressed in HUVEC): did not inhibit

Source: paper PMC10827914 (Cellular and Molecular Life Sciences: CMLS, 2024)
